The values that follow come from US7067619 (LA JOLLA CANCER RESEARCH FOUNDATION, dated 2006).

Assay [1] has as its target T1, α5β1 integrin isolated from human placental extract (human, UniProt P08648 42-1049; P05556 21-798).
T1 construct: coated on plastic wells or captured by anti-α5 antibody; also called fibronectin receptor
The assay can be described thus: phage panning on coated integrin.

Assay [2] addresses T1, α5β1 integrin isolated from human …. In words: phage binding to α5β1-coated wells.
The target is the same in assay [3]. In words: competition with RRETAWA phage on α5β1-coated wells.
Assay [4] has as its target T2, αvβ3 integrin isolated from human placental extract (human, UniProt P06756 31-1048; P05106 27-788).
T2 construct: isolated on GRGDSPK-Sepharose; said to be primarily αvβ3
The assay can be described thus: competition with CRGDCL phage on αvβ3-coated wells. Here is the method:
The ability of […] […] [SEQ ID NO:5] was added to compete for binding. Binding was quantitated as described above.

Assay [5] addresses α5β1 integrin composed of human α5 and CHO β1 on B2/α27 cells (human; Chinese hamster (CHO), UniProt P08648 42-1049). The assay can be described thus: cell-based or functional assay.
The target in assay [6] is αvβ1 integrin on CHO cell line B2/v7. In words: cell-based or functional assay.
Assay [7] has as its target T3, αvβ5 integrin isolated from human placental extract (human, UniProt P06756 31-1048; P18084 24-799). In words: phage competition on αvβ5-coated wells.
Assay [8] concerns the target T2, αvβ3 integrin isolated from human …. The assay can be described thus: phage competition on αvβ3-coated wells.
Assay [9] concerns the target T3, αvβ5 integrin isolated from human …. The assay can be described thus: affinity chromatography of placental extract.
For assay [10], the target named is T2, αvβ3 integrin isolated from human …. In words: competition with phage on αvβ3-coated wells.
Assay [11] concerns the target T3, αvβ5 integrin isolated from human …. In words: competition with … phage on αvβ5-coated wells. Here is the method: [SEQ ID NO:10] sequence were incubated for 1 hour in integrin-coated wells in the presence of the competing peptides or dimethyl sulfoxide solvent as a control.
Assay [12] has as its target αvβ5 integrin on HT-29 and UCLA-P3 cells (UniProt P06756 31-1048; P18084 24-799). In words: cell-based or functional assay.
Assay [13] deals with αvβ3 integrin on IMR-90 cells (UniProt P06756 31-1048; P05106 27-788). In words: cell-based or functional assay.
Chain of αvβ3 integrin on IMR-90 cells (P06756 31-1048, chain 1 of 2): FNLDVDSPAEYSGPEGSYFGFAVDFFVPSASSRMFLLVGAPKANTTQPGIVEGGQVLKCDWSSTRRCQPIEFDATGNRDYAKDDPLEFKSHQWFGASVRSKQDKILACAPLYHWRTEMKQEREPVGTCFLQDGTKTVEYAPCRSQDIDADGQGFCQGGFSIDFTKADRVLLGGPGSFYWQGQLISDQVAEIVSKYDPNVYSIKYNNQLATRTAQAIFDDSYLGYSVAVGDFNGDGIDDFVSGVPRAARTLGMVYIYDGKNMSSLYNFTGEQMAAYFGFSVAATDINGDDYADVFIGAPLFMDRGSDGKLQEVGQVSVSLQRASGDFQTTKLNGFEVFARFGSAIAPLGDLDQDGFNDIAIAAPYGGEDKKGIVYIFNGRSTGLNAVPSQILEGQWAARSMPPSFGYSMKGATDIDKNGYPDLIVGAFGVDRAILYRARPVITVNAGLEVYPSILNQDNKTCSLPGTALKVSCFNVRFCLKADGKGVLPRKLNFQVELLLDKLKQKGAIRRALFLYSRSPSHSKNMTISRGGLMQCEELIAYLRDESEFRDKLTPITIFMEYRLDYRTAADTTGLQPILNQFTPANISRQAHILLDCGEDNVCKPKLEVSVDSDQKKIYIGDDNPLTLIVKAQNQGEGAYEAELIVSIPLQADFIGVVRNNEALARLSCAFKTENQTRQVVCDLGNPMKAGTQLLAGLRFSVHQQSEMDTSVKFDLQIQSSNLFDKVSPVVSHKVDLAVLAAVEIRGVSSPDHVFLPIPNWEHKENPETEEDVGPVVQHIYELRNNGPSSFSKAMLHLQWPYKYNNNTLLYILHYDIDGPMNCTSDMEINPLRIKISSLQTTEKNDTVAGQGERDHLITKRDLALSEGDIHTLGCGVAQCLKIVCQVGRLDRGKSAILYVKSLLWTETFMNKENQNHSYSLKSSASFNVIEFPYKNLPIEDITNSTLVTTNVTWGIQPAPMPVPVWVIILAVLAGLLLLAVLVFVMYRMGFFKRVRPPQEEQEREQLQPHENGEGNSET
Chain of αvβ3 integrin on IMR-90 cells (P05106 27-788, chain 2 of 2): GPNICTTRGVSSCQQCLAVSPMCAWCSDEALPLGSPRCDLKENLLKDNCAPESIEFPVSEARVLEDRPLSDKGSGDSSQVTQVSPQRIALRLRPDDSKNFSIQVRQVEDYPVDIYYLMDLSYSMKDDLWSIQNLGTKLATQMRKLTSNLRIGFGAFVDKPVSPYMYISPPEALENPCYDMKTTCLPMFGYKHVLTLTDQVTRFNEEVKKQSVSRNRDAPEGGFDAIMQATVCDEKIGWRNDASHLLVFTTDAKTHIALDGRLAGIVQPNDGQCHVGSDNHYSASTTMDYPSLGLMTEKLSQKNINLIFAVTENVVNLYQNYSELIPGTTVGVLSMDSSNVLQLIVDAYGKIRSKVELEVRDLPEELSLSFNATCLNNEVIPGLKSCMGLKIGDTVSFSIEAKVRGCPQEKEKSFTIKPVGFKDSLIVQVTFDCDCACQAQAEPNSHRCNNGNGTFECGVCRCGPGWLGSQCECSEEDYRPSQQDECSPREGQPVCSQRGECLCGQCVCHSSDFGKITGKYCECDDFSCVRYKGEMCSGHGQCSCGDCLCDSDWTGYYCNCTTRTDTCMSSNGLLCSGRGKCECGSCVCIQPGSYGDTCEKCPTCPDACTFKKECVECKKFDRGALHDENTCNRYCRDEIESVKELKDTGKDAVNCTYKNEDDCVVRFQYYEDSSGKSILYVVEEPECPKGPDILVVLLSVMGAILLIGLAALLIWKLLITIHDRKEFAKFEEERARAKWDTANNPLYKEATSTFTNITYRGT
Assay [14] has as its target T2, αvβ3 integrin isolated from human …. In words: affinity chromatography of placental extract.
The target is the same in assay [15]. The assay can be described thus: phage panning on coated integrin. Here is the method:
In the first panning, the integrins were coated at 5 µg per well, and the library pool was incubated for 4 hours at 25° C. in TBS buffer containing 1% bovine serum albumin and 1 mM MnCl_2 (α_5β_1, α_vβ_3) 1 mM MgCl_2 ($\alphaIIb\beta_3$) or 1 mM CaCl_2 (α_vβ_5).

Assay [16] deals with T1, α5β1 integrin isolated from human …. The assay can be described thus: phage binding to integrin-coated wells.

Bridge positions count the residues as written; N and C are the ends. Ends that are not written are not given here. * marks the point of attachment. Cam = NC(=O)C*

Chain of α5β1 integrin composed of human α5 and CHO β1 on B2/α27 cells (P08648 42-1049): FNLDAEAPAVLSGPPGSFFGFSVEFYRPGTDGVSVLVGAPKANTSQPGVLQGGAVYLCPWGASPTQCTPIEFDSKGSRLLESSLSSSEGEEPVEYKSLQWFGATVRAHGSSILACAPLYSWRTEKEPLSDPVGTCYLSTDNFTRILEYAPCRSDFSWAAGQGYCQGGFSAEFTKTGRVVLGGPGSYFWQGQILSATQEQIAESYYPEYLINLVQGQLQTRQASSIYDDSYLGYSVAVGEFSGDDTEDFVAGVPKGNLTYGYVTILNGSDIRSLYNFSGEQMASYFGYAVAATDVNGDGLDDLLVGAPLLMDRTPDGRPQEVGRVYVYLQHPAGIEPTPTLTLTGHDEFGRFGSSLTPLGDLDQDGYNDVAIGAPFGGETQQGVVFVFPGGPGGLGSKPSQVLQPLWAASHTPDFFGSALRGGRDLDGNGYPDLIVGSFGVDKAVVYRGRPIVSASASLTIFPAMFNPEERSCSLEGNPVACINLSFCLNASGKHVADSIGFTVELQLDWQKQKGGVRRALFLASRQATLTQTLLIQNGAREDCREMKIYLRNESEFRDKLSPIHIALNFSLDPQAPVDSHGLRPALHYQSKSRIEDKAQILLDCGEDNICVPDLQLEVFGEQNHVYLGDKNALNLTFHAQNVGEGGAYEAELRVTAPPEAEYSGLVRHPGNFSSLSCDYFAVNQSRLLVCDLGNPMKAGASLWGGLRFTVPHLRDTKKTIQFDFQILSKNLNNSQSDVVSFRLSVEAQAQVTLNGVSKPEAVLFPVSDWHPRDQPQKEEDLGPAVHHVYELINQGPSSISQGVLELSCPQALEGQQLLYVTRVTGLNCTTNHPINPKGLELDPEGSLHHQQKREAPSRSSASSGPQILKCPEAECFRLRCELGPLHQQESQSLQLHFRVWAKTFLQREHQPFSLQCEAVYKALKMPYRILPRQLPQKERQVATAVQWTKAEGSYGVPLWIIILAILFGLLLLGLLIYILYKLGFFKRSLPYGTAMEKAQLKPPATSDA
T1 sequence (P08648 42-1049, chain 1 of 2): as the sequence (P08648 42-1049) above
T1 sequence (P05556 21-798, chain 2 of 2): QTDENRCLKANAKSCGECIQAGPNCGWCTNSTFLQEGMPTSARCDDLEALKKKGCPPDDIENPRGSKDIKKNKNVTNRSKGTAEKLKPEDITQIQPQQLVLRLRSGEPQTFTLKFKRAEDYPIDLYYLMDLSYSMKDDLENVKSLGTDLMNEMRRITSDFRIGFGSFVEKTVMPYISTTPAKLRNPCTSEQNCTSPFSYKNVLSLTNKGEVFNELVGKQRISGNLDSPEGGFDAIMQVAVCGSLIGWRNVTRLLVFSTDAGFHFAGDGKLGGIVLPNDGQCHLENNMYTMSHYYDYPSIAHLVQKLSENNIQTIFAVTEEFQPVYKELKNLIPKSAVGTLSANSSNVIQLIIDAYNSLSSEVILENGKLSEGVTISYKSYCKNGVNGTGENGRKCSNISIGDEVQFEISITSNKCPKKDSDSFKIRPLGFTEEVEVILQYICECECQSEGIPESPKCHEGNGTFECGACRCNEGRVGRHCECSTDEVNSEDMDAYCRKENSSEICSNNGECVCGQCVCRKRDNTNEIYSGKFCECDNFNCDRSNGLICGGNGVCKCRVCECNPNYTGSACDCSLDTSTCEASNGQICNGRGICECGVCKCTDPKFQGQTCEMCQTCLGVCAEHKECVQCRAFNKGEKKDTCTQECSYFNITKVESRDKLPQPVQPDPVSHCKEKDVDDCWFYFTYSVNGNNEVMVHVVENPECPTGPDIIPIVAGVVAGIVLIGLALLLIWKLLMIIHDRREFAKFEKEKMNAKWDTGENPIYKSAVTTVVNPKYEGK
T3 sequence (P06756 31-1048, chain 1 of 2): as the sequence (P06756 31-1048, chain 1 of 2) above
T3 sequence (P18084 24-799, chain 2 of 2): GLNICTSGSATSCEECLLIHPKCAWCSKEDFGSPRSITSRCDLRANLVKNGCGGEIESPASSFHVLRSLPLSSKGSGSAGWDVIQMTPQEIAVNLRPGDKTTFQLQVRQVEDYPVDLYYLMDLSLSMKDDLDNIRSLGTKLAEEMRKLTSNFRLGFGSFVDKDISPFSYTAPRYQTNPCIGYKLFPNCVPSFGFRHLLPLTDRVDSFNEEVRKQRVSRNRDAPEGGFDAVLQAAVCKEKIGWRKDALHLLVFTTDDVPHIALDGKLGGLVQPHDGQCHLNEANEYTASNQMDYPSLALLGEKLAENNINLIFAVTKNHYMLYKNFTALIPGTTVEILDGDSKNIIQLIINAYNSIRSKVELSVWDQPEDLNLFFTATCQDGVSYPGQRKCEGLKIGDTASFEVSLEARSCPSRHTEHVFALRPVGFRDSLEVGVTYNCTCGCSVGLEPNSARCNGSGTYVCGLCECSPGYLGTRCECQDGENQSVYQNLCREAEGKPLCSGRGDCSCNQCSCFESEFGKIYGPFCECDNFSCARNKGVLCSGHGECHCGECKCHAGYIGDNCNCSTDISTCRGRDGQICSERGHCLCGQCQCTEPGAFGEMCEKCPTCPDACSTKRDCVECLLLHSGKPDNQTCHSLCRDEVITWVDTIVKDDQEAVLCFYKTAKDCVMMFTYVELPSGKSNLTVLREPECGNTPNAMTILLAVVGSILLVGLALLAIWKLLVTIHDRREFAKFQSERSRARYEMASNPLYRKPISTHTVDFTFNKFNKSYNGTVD
Chain of αvβ5 integrin on HT-29 and UCLA-P3 cells (P06756 31-1048, chain 1 of 2): as the sequence (P06756 31-1048, chain 1 of 2) above
Chain of αvβ5 integrin on HT-29 and UCLA-P3 cells (P18084 24-799, chain 2 of 2): as the sequence (P18084 24-799, chain 2 of 2) above
T2 sequence (P06756 31-1048, chain 1 of 2): as the sequence (P06756 31-1048, chain 1 of 2) above
T2 sequence (P05106 27-788, chain 2 of 2): as the sequence (P05106 27-788, chain 2 of 2) above

Regarding WCRRETNWAC (on fuse 5 phage, fused to pIII) [WCRRETNWAC phage], the binding result in assay [1] is recorded as “binds”.

As for DCRRETSWAC (on fuse 5 phage, fused to pIII) [DCRRETSWAC phage], the binding result in assay [1] is “binds”.

B1: CRGDCL-displaying phage (peptide)
peptide: CRGDCL
notes: on fuse 5 phage, fused to pIII; also called phage expressing CRGDCL
Consider B1, for which the binding result in assay [2] is “binds”.

B2: cyclic peptide GACRGDCLGA (peptide)
peptide: GACRGDCLGA
modifications: disulfide 3-7 (inferred)
notes: synthetic; also called cyclic CRGDCL peptide
As to B2, the binding result in assay [3] and in [4] was “binds” in each case.

For GAC(Cam)RRETAWAC(Cam)GA [GACRRETAWACGA linearized by reduction and alkylation], the “fold reduction of activity against the cyclic peptide, cell attachment to fibronectin” value in [5] was approximately 50 ×.

In the case of YCRPETAWAC (on fuse 5 phage, fused to pIII) [YCRPETAWAC phage], the binding result in [1] is given as “binds”.

Regarding DCRRETAWRC (on fuse 5 phage, fused to pIII) [DCRRETAWRC phage], in assay [1], the binding result is listed as “binds”.

As for GACRRETAWACGA (disulfide 3-11 (inferred)) [cyclic peptide GACRRETAWACGA], the “IC50 of inhibition of cell attachment to fibronectin (B2/α27 cells)” value in assay [5] turned out to be 30000 nM. Moreover, in assay [6], the “fold less active than the cyclic RGD peptide, inhibition of cell attachment to fibronectin” value was more than 100 × and the “fold less active than …, inhibition of cell attachment to fibronectin” value was approximately 40 ×.

As for ACRAETAWRC (on fuse 5 phage, fused to pIII) [ACRAETAWRC phage], in [1], the binding result is listed as “binds”.

As to SCRAETAWMC (on fuse 5 phage, fused to pIII) [SCRAETAWMC phage], the binding result in [1] is given as “binds”.

B3: cyclic peptide A*CPSRLDSPC*G (peptide)
peptide: ACPSRLDSPCG
modifications: disulfide 2-10 (inferred)
notes: synthetic; also called RLD-containing peptide
In the case of B3, the “fold lower activity than *CRGDC*” value in assay [7] was 1000 fold; in assay [8], 100 fold.

B4: vitronectin purified from human plasma (ligand, UniProt P04004 20-478, looked up)
chain: DQESCKGRCTEGFNVDKKCQCDELCSYYQSCCTDYTAECKPQVTRGDVFTMPEDEYTVYDDGEEKNNATVHEQVGGPSLTSDLQAQSKGNPEQTPVLKPEEEAPAPEVGASKPEGIDSRPETLHPGRPQPPAEEELCSGKPFDAFTDLKNGSLFAFRGQYCYELDEKAVRPGYPKLIRDVWGIEGPIDAAFTRINCQGKTYLFKGSQYWRFEDGVLDPDYPRNISDGFDGIPDNVDAALALPAHSYSGRERVYFFKGKQYWEYQFQHQPSQEECEGSSLSAVFEHFAMMQRDSWEDIFELLFWGRTSAGTRQPQFISRDWHGVPGQVDAAMAGRIYISGMAPRPSLAKKQRFRHRNRKGYRSQRGHSRGRNQNSRRPSRATWLSLFSSEESNLGANNYDDYRMDWLVPATCEPIQSVFFFSGDKYYRVNLRTRRVDTVDPPYPRSIAQYWLGCPAPGHL
notes: also called labeled vitronectin
B4: in [9], the binding result is reported as “binds”.

Regarding DCRHETAWAC (on fuse 5 phage, fused to pIII) [DCRHETAWAC phage], in assay [1], the binding result is “binds”.

B5: cyclized peptide ACDCRGDCFCG (peptide)
peptide: ACDCRGDCFCG
modifications: disulfide (positions not given here); also: two disulfide bonds, pairing not determined
notes: synthetic; also called double disulfide bond-containing peptide
As to B5, the “fold better inhibition than *CRGDC*” value in assay [10] is 5 fold. For the same molecule, the “fold more potent than *CRGDC*” value in [11] came out at 10 fold. For the same molecule, in assay [12], the “IC50 of inhibition of attachment of HT-29 cells to vitronectin” value turned out to be 600 nM; the “IC50 of inhibition of attachment of UCLA-P3 cells to vitronectin” value is 600 nM; the “fold enhancement in activity relative to *CRGDC*, UCLA-P3 cells” value was determined as 20 fold; the “fold higher affinity than *CRGDC*, attachment of HT-29 cells to vitronectin” value came to 40 fold. Further, the “fold higher affinity than A*CRGDGWC*G, attachment of HT-29 cells to vitronectin” value in [12] amounted to 40 fold. Further, in assay [13], the “IC50 of inhibition of attachment of IMR-90 cells to vitronectin” value was 200 nM and the “fold more effective than *CRGDC*, attachment of IMR-90 cells to vitronectin” value is 20 fold.

On to GACELRGDGWCGA (disulfide 3-11 (inferred)) [cyclic peptide GAC*ELRGDGWC*GA], for which the “fold less active than A*CRGDGWC*G, cell attachment to fibronectin” value in assay [5] turned out to be 10 fold.

GRGDSPK (also: coupled to Sepharose, also called GRGDSPK peptide column) [Sepharose-coupled GRGDSPK peptide]: the binding result in [14] is reported as “binds”.

B6: CPSRLDSPC phage (peptide)
peptide: CPSRLDSPC
modifications: disulfide 1-9 (inferred); not fully specified (N-terminus, C-terminus)
notes: on fuse 5 phage, fused to pIII; also called RLD-containing phage
As to B6, the figures for the binding result in assay [15] and in [16] were “binds” and “no binding”, respectively.
